In patent US20060275780, “Cross-linking reagents and uses thereof” (Beckman Coulter, Inc., published 2006):

Tests used:
[1] = target: T1, FGFb (fibroblast growth factor-basic, bFGF, FGF2) (UniProt P09038 P09038:143-288); test: Ru(bpy)3 2+/APS visible-light cross-linking; urea gel and printed aptamer array with anti-FGF ELF detection; complex stable to 1N NaOH 1% SDS when cross-linked
Text: bFGF photoaptamer (GCG AAG GCA CAC CGA GXX CAX AGX AXC CCA, where X=BrdU; SEQ ID NO:1) was mixed with FGFb ligand overnight to achieve maximal aptamer-ligand binding. White light-mediated photolysis of tris-bipyridylruthenium (II) complex was employed to cross-link the aptamer to the ligand in the presence of APS. The solution was then boiled in the presence of urea-SDS to dissociate bound but uncross-linked ligand from the aptamer. The mixture was subsequently applied to a urea slab gel to separate free aptamer from the cross-linked aptamer-ligand complex by electrophoresis. SYBR Gold staining was used to determine the presence of the aptamer, while double-staining with silver stain was used to determine the presence of the ligand. Referring to FIG. 1, the test sample consisted of bFGF photoaptamer and fibroblast growth factor-basic (FGFb) ligand; the control sample consisted of only bFGF photoaptamer. The test and control samples were incubated overnight prior to PICUP (photo-induced cross-linking of unmodified proteins)-like cross-linking. The samples (12 ul/each) were run on a 6% TBE-urea gel. […] Both the test and control samples were subject to denaturing conditions (100° C. for 5 minutes in TBE-urea sample buffer) prior to electrophoresis.
In FIG. 2, FGFb ligand was applied to an array of aptamers and incubated for 48 hours to achieve maximal binding. […]

[2] = target: T1, FGFb (fibroblast growth factor-basic, …); test: printed aptamer array; stated to bind as tightly as the BrdU aptamer; cross-linking avidity lower (curve shifted right) after 1N NaOH 1% SDS
Method: FGFb bindings by bFGF photoaptamer and bFGF native aptamer (GCGAAGGCACACCGAGTTCATAGTATCCCA; SEQ ID NO:2) were compared. Referring to FIG. 3, * denotes PICUP-like cross-linking (the left two columns), while the remaining wells represent non-covalent ligand capture (the right two columns). Samples in plates 1* and 7 were treated with 1N NaOH, 1% SDS to remove the non-covalently bound ligand.
This hypothesis was tested by titrating increasing concentrations of FGFb against the two aptamers and plotting binding curves. Referring to FIG. 4, in the left panel, the two left hand side columns of each array were printed with bFGF photoaptamer, while the two right hand side columns were printed with bFGF native aptamer. The eighteen arrays in the left panel were cross-linked using a PICUP-like protocol, whereas the six arrays in the right panel represent non-covalent binding. All wells were treated with 1N NaOH, 1% SDS to strip the non-covalently bound ligand. The displacement of the bFGF native aptamer binding curve (diamonds) to the right of the bFGF photoaptamer curve (squares) confirmed that the cross-linking avidity of the bFGF native aptamer is lower than its BrdU-modified bFGF photoaptamer analog (FIG. 5).

T1 sequence (P09038 143-288, one chain of several): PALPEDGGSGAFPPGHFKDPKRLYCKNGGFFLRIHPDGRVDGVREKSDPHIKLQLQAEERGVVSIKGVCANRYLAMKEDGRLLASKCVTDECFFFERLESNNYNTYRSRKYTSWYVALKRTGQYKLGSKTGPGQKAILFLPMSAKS

B1: bFGF photoaptamer (ssDNA)
DNA: GCGAAGGCACACCGAGTTCATAGTATCCCA
modifications: BrdU at the five n positions (17, 18, 22, 25, 27), replacing T [n positions 17,18,21,24,26 = modified dU]
binding result [1]: binds

B2: bFGF native aptamer (ssDNA)
DNA: B1 DNA
binding result [2]: binds
